Values quoted from earlier work as cited in patent publication US9241970B2, “Therapy for subarachnoid hemorrhage and ischemia” (NoNO Inc., priority 2011, dated 2016).

Target: binding of NMDAR2B to PSD-95 (Homo sapiens, UniProt P78352)
Details: reported by Bach

Sequence of binding of NMDAR2B to PSD-95 (P78352 whole entry): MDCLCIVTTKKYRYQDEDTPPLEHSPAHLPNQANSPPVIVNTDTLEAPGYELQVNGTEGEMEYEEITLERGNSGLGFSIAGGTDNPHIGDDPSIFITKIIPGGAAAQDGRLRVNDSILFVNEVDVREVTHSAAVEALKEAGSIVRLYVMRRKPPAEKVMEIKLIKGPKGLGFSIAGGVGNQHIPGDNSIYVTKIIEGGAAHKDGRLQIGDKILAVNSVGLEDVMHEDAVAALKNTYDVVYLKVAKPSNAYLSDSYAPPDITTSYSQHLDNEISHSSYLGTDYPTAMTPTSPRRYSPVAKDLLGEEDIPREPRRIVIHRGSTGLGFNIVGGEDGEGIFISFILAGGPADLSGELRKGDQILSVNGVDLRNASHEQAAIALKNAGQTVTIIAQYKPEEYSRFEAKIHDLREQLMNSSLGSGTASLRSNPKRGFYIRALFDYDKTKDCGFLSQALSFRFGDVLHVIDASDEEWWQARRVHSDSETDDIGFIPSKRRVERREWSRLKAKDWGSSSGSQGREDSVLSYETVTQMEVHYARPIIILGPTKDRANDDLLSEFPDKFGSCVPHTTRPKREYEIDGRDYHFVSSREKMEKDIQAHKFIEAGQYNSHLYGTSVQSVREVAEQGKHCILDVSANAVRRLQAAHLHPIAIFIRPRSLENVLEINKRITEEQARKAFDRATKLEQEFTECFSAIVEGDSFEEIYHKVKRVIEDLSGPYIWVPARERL

For IESDV (listed as Homo sapiens), the “inhibition of binding of NMDAR2B to PSD-95” value is given as “effective in inhibiting binding of NMDAR2B to PSD-95”.
